Values quoted from earlier work, collected in paper PMC11301627.

Biological target: Asp133 (UniProt position 133, SNFHFDTTAAH)
Experiment: kinetics
Details: wild-type enzyme, steady-state reaction with L-Trp

**Q.** For “Tryptophan indole-lyase (TIL, tryptophanase) (Proteus vulgaris)”, which pKa is on record?
**A.** Its pKa is 5.3.
